System: MS2 coat protein
Assay: apparent KD of MS2 coat protein; designed switch direction (-1 OFF switch, 1 ON switch): -1; higher = weaker reporter binding
Outline: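 The reported apparent KD is a per-design median over clusters, from curve fits of normalised cluster fluorescence. Protein titrations used SNAP-549-labelled MS2 coat protein, doubled from 0.7 or 1.5 nM to 3 µM, in Tris-HCl pH 7.5 buffer with KCl, MgCl2, BSA, DTT, tRNA and Tween-20, with no input, 200 uM small-molecule ligand, or an oligonucleotide input. The RNA switches were transcribed on Illumina chips by stalled E. coli RNA polymerase.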

[1] = Eterna round: R95, input ligand: microRNA oligo, concentration not stated
[2] = input ligand: microRNA oligo, concentration not stated
[3] = Eterna round: R95, input ligand: FMN 200 uM
[4] = Eterna round: R95, input ligand: none

| Sequence | apparent KD of MS2 coat protein [1] | apparent KD of MS2 coat protein (input ligand: FMN 200 uM) | apparent KD of MS2 coat protein (input ligand: none) | further results |
| --- | --- | --- | --- | --- |
| UCGCUGCGAGGAUAUACAUGAGGAUCACCCAUGUACGGGUCCGGGUCUUCGUCUAUUGGUAGAAGGCGCAGUGA [JL Laongeedie mod 8] (puzzle: Exclusion 3) | 43.6 nM |  |  |  |
| UUCUUACAUGAGGAUCACCCAUGUCAGGAUAUCUCCUCACUGCGCUUGCGCAGUGGAUAGAGAAGGGACAGGCU [JL ViennaUCT Aner mod 3] (puzzle: Exclusion 1) | 43.1 nM |  |  |  |
| AAACACGGAGGAUAUGGUCACUAGGACAUGAGGAUCACCCAUGUGGGAGUGCUAGUGCUACCAGAAGGUUGAAGUC [Eternabot (L1) Solution 54] (Eterna round: R97, puzzle: Exclusion 5) |  | 66.6 nM | 76.1 nM |  |
| CUGGACCCGGUAGGAUAUAUUGUGGGCGGGCGUGGAACGACAUGAGGAUCACCCAUGUGAUUGAGGUAGAAGGGCCGAGAGGUU [Excl-NG2-LRO18] (Eterna round: R96, puzzle: Exclusion NG 2) |  | 52.7 nM | 61.8 nM | apparent KD of MS2 coat protein [2]: 33.8 nM |
| CCCUCACAUGAGGAUCACCCAUGUCAGGAUAUCUCAGUGCGUCCACACGGACACAUCAAGAGAAGGGACAAAAC [Maceedesbi] (Eterna round: R97, puzzle: Exclusion 1) |  | 26.3 nM | 18.6 nM |  |
| CAGGAUAGAGGAUAUACAUAGAUACAGAUUCAUGUGAUCCUACAUGAGGAUCACCCAUGUAGAAGGCUAACCUG [Fiskers Ex 2 - 24] (puzzle: Exclusion 2) | 306 nM |  |  |  |
| AGUCUGCGAGGAUAUACAUGAGGAUCACCCAUGUGCGAGAAACUAGUGAGGUCGAUUGGUAGAAGGCGCGGACA [Mat - Exclusion 3 - Mod of JL D87] (puzzle: Exclusion 3) | 200 nM |  |  | apparent KD of MS2 coat protein [3]: 34.7 nM; apparent KD of MS2 coat protein [4]: 356 nM |
| AAAUAGCAUGAGGAUAUUGAACUGUAUUCAGUACGAGAAGGCAUGACAUGAGGAUCACCCAUGUUUUGUUGGGA [EX6 #5] (Eterna round: R97, puzzle: Exclusion 6) |  | 126 nM | 27 nM |  |
| ACUCGACAUGAGGAUCACCCAUGUGAGGAUAUGGCCUGUAUGGCGUGAGCUGAAUCAAUCAGAAGGCGCGUGGG [salish99_ex1_r4_053] (Eterna round: R97, puzzle: Exclusion 1) |  | 105 nM | 44.8 nM |  |
| GAGUGACAUGAGGAUCACCCAUGUGAGGAUAUCGGACGGACCAAAUUAACAAUAAAUGCGAGAAGGCGCAUCGG [Exclusion 1 V16] (puzzle: Exclusion 1) | 43.3 nM |  |  | apparent KD of MS2 coat protein [3]: 46.7 nM; apparent KD of MS2 coat protein [4]: 54.3 nM |
| AACAGUGAUGAGGAUAUAUAAAGAGAAAAGAAAAUAGAAGGUGUCACAUGAGGAUCACCCAUGUGUUCUUCAGA [EX6 A.12] (Eterna round: R97, puzzle: Exclusion 6) |  | 17.4 nM | 16.5 nM |  |
| GAAGAAGAGAGAAAAGAAAACAUGAGGAUCACCCAUGUGAGAAGAUGAGGGUGUAGCAGGCUUUAUGCUCGUCUUAU (puzzle: Sensor v3, turn-off variant 1) | 78.5 nM |  |  | apparent KD of MS2 coat protein [3]: 27.5 nM; apparent KD of MS2 coat protein [4]: 27.9 nM |
| CGCAAAAGGAAGGAUAUGCUAGACGAAAGUCUAGCAGAAGGUCCUACAUGAGGAUCACCCAUGUGUCCUAUGCG [Mat - Exclusion 6 - Eli Mod - D11] (Eterna round: R97, puzzle: Exclusion 6) |  | 63.1 nM | 46.6 nM |  |
| ACCUCACAUGAGGAUCACCCAUGUUAGGAUAUCUCGGUGCCCUGCAGGCAGUGGCACCAGAGAAGGAACGUGCA [Anbearqu] (puzzle: Exclusion 1) | 17.2 nM |  |  |  |
| AGAGAGUCAGGAUAUCGGAGGGAGAGGAGAGGAGAGAGGGACGAGAAGGGACAUGAGGAUCACCCAUGUAGGUG [JR_Exclusion4)Sub017] (puzzle: Exclusion 4) | 437 nM |  |  | apparent KD of MS2 coat protein [3]: 263 nM; apparent KD of MS2 coat protein [4]: 663 nM |
| CUUUUGUGAGGAUAUUUGUAGUAAAUAAAUAAAAUUACUACUGAGAAGGCACAUGAGGAUCACCCAUGUUCCUC [salish99_ex4_r3_042] (Eterna round: R96, puzzle: Exclusion 4) |  | 200 nM | 28.6 nM | apparent KD of MS2 coat protein [2]: 24.4 nM |
| ACUAGAUGAGGAUAUGCAUAUUUUCGUGUUCUUCUAGAUUAACAUGAGGAUCACCCAUGUAGAAGGCGUCAUUU [Exclusion 2 - 16] (puzzle: Exclusion 2) | 15.7 nM |  |  |  |
| AGCUGUGGCCGAGGAUAUCUAAAUUCUUAAAACGAAAUAUAAUCGAACAUGAGGAUCACCCAUGUAGAGAAGGCGGUCUCAGCA [Eli eng2 - 059] (Eterna round: R96, puzzle: Exclusion NG 2) |  |  |  | apparent KD of MS2 coat protein [2]: 13.4 nM |

| Sequence | apparent KD of MS2 coat protein [1] | apparent KD of MS2 coat protein (input ligand: FMN 200 uM) | apparent KD of MS2 coat protein (input ligand: none) | further results |
| --- | --- | --- | --- | --- |
| UAAAAGCUAGGAUAUACAUGAGGAUCACCCAUGUAAUCUCUCACUUACACGGAGGAUCGUAGAAGGAGCACAAA [Inlaveti] (puzzle: Exclusion 3) | 20.3 nM |  |  |  |
| AACCUGAGGCAAAGCUUUAGGUGUACAUGAGGAUCACCCAUGUAGGAUAUGGUAGGCAAAGCUUACCAGAAGGACAUUUAGGUU [Mat - Exclusion NG 3 - Mod of JL - D44] (Eterna round: R96, puzzle: Exclusion NG 3) |  | 81.6 nM | 52.1 nM | apparent KD of MS2 coat protein [2]: 36.5 nM |
| GGUGGACAUGAGGAUCACCCAUGUGAGGAUAUCGGCUGGUACGUGGUGGCUGGCAUCUCGAGAAGGCACAUAGU [Exclusion 1 V66] (puzzle: Exclusion 1) | 83.6 nM |  |  |  |
| AGCUAGUGCCGAGGAUAUACAUGAGGAUCACCCAUGUAGGCCAGUCGGUUUCUGACUGGCGAGAUGUAGAAGGCGGCGUUGGCA [JL ENG2 1.51] (Eterna round: R96, puzzle: Exclusion NG 2) |  | 49 nM | 15.6 nM | apparent KD of MS2 coat protein [2]: 12.6 nM |
| ACUGGUGCAGGAUAUACAUUCGUGCUUCGGCACGUAAGAUCACAUGAGGAUCACCCAUGUAGAAGGGCACCAGU [E2/5-D2] (Eterna round: R97, puzzle: Exclusion 2) |  | 642 nM | 81.6 nM |  |
| AAAUUAGCAAGUAGGUCCGACAUGAGGAUCACCCAUGUAAUCUAAUAUUACGCUGCAUGAGAGUGCGCUCGUCUUAG [Sensor-V1 #17] (Eterna round: R97, puzzle: Sensor, turn-off variant 1) |  | 241 nM | 337 nM |  |
| UUUUAACAUGAGGAUCACCCAUGUGAGGAUAUCGAAAUUUAUAUUAAUAUUUAUAUUUCGAGAAGGCACAUUUU [JMF 57] (puzzle: Exclusion 1) | 153 nM |  |  |  |
| CAGUACUGAGGAUAUACAUGAGGAUCACCCAUGUUGAGAUGAAAAGAAAUAGUUUCAUGUAGAAGGCGGUGCUG [JR_Ex3_Sub048] (Eterna round: R97, puzzle: Exclusion 3) |  | 365 nM | 118 nM |  |
| UACCUACAUGAGGAUCACCCAUGUCAGGAUAUCCGUGUGAACGAGUCGUUACACAGGCGGAGAAGGGACAUCGG [Eternabot (L1) Solution 65] (Eterna round: R97, puzzle: Exclusion 1) |  | 94.5 nM | 54.2 nM |  |
| UUACGGUAGAUCGUGGCUUUUUGCUCGUCUUGUGCUACAACAUGAGGAUCACCCAUGUAGAGGUGAUCUAUUGUAUU [Grok-var2-20 mod JAL] (puzzle: Sensor v3, turn-off variant 2) | 17.8 nM |  |  | apparent KD of MS2 coat protein [3]: 51.9 nM; apparent KD of MS2 coat protein [4]: 74.5 nM |
| CCAGCAAAUGUAAGGAUAUGCUGGUCCUUGGAUCAGCAGAAGGUACAUGAGGAUCACCCAUGUAGGUAAGCUGG [Eli bmx4 4.63] (Eterna round: R97, puzzle: Brourd's mod of Exclusion 4) |  | 118 nM | 23.5 nM |  |
| ACAAGCUUGUAAUGAUAGAACAUGAGGAUCACCCAUGUAAAUGGAAGAACCAAUUAGAUAAGAUAAACUCGUCUUAU [JR_STOV1_Sub002] (Eterna round: R97, puzzle: Sensor, turn-off variant 1) |  | 59.1 nM | 69.5 nM |  |
| AGUUCACAUGAGGAUCACCCAUGUGAGGAUAUGGUUUCGCUGGCCGUAGCCAGUGGAACCAGAAGGCGCAUGAU [Mat - Exclusion 1 - JL Mod - D14] (Eterna round: R97, puzzle: Exclusion 1) |  | 38.6 nM | 34.5 nM |  |
| UCUUACUGAGGAUAUACAUAGAUUUACAUGAGGAUCACCCAUGUUCCUCUAUGUAUAAAUGUAGAAGGCAGAAGAU [Mat - Exclusion 5 - JL Mod - D54] (Eterna round: R97, puzzle: Exclusion 5) |  | 72.9 nM | 18 nM |  |
| AAGAAGCAAGGAUAUACAGAGGAGAGUAAAGCAAGAGGAGAACAUGAGGAUCACCCAUGUAGAAGGUGCAGAGA [JR_Exclu2_Sub018] (puzzle: Exclusion 2) | 20.3 nM |  |  | apparent KD of MS2 coat protein [3]: 40.3 nM; apparent KD of MS2 coat protein [4]: 29.1 nM |
| AACAGGUCAGGAUAUACAUGAGGAUCACCCAUGUAGACUUCUAGUCUAUCGUGACUGUGUAGAAGGGACCUGAA [Exclusion 3 (MOD of #98 Marzena11)] (Eterna round: R97, puzzle: Exclusion 3) |  | 146 nM | 40.1 nM |  |
| CCGGAAAUGUAGGAUAUAGGAGUCGAUAGACACCUAGAAGGGCAUACAUGAGGAUCACCCAUGUGUCCUACCGG [Fiskers Ex 6 - 80] (puzzle: Exclusion 6) | 11.8 nM |  |  |  |
| UAUAUAUAGUAAGGAUAUGUAAUUAUUUUAUGAACAGAAGGUACUGACAUGAGGAUCACCCAUGUUUUAGUGUGGGCAUGUAGA [JMF's solution 48] (Eterna round: R96, puzzle: Exclusion NG 1) |  |  |  | apparent KD of MS2 coat protein [2]: 61.3 nM |
